Target: T1, human GDF15 receptor (GFRAL) stably over-expressed on SK-N-AS cells (human, UniProt Q6UXV0 19-394)
T1 sequence (looked up): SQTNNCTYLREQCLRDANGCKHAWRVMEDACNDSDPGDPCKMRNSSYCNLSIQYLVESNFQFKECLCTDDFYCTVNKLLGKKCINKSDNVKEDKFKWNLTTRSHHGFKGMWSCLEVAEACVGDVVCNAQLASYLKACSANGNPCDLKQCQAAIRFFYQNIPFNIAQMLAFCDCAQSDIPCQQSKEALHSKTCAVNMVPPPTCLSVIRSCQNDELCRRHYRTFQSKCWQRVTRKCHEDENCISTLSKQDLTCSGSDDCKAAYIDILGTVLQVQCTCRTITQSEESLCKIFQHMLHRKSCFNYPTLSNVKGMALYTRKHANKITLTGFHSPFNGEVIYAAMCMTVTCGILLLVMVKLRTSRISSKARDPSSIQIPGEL
Assay: cell-based or functional assay

EC50, cell-based pAKT (phospho-AKT Ser473) assay: 0.153 nM
B1: Native GDF15 (ligand, UniProt Q99988 197-308, looked up)
chain: ARNGDHCPLGPGRCCRLHTVRASLEDLGWADWVLSPREVQVTMCIGACPSQFRAANMHAQIKTSLHRLKPDTVPAPCCVPASYNPMVLIQKTDTGVSLQTYDDLLAKDCHCI

Source: patent US20220315633A1 (Janssen / Centocor, published 2022)
